Experimental data: patent US20120172298A1, “GLP-1 AND FGF21 COMBINATIONS FOR TREATMENT OF DIABETES TYPE 2” (Novo Nordisk A/S, priority 2009, published 2012)

Legend:
[1] = system: rat insulinoma beta-cells (INS-1); assay: Insulin accumulated in the medium of INS-1 cells during 48 hour incubation with FFA; format: cell-based; conditions: for Insulin accumulated in the medium: 48 hours, FGF21 compound = F1 50 nM, GLP-1 compound = G1 50 nM, mean +/- SEM
Method: (§1) This ex vivo example investigates the influence of FGF21 and GLP-1 compounds on FFA (free fatty acid) induced apoptosis of rat insulinoma beta-cells (INS-1).
(§2) Compound F1 (Prospec, cat. no. CYT-474) was used as the FGF21 compound, and compound G1 was used as the GLP-1 compound.
INS-1 cells were seeded in 96-well plates (50000 cells/well) and incubated overnight in cell medium (RPMI 1640 medium (Gibco, cat. no. 61870-010), supplemented with 10% FCS (Gibco, cat. no. 10085-140), 1% Pen/Strep (Gibco, cat. no. 15140-114) and 0.5 ml beta-mercaptoethanol (Gibco, cat. no. 31350-010 (50 mM)). The FGF21 compound (50 nM) and the GLP-1 compound (50 nM) were added to the cells 1 hour before the cells were to be exposed to FFA. The FFA's were prepared as follows: Stock solutions of palmitic acid (Sigma P5585) and oleic acid (Sigma 01383) of 1M in DMSO were mixed 1:2 and heated to 60 degree Celsius. The FFA mix was then diluted 10 times in 0.1M NaOH. This mixture was then further diluted in cell medium to yield a FFA concentration of 1 mM. The FFAs were then added to the cells to a final concentration of 0.35 mM. The cells were incubated for 48 hours and then the following three assays were performed: 1) Cell viability was assessed using the CellTiter 96® Non-radioactive Cell Proliferation Assay (MTT) from Promega, performed according to the manufacturer's instruction (absorbance at 550 nm, A550); 2) Apoptosis was assessed using the Apo-ONE® Homogeneous Caspase-3/7 Assay from Promega, performed according to the manufacturer's instruction (fluorescence); and 3) Insulin accumulated in the medium during the 48 hour incubation with FFA was analysed (as described in Example 3; ng/ml insulin).
The results of 1), 2) and 3) are shown in Tables 4, 5, and 6 below, respectively, all figures being mean+/−standard error of mean (SEM). […]

[2] = system: rat insulinoma beta-cells (INS-1); assay: FFA induced apoptosis of INS-1 beta-cells (Caspase-3/7 assay); format: cell-based; conditions: 48 hours, FGF21 compound = F1 50 nM, GLP-1 compound = G1 50 nM, mean +/- SEM
Method: as §1, §2
(§3) INS-1 cells were seeded in 96-well plates (50000 cells/well) and incubated overnight in cell medium (RPMI 1640 medium (Gibco, cat. no. 61870-010), supplemented with 10% FCS (Gibco, cat. no. 10085-140), 1% Pen/Strep (Gibco, cat. no. 15140-114) and 0.5 ml beta-mercaptoethanol (Gibco, cat. no. 31350-010 (50 mM)). The FGF21 compound (50 nM) and the GLP-1 compound (50 nM) were added to the cells 1 hour before the cells were to be exposed to FFA. The FFA's were prepared as follows: Stock solutions of palmitic acid (Sigma P5585) and oleic acid (Sigma 01383) of 1M in DMSO were mixed 1:2 and heated to 60 degree Celsius. The FFA mix was then diluted 10 times in 0.1M NaOH. This mixture was then further diluted in cell medium to yield a FFA concentration of 1 mM. The FFAs were then added to the cells to a final concentration of 0.35 mM. […]

[3] = system: rat insulinoma beta-cells (INS-1); assay: Cell viability of INS-1 beta-cells exposed to free fatty acids (MTT assay); format: cell-based; conditions: 48 hours, FGF21 compound = F1 50 nM, GLP-1 compound = G1 50 nM, mean +/- SEM
Method: as §1, §2, §3

[4] = system: db/db mice; assay: Effect on blood glucose in vivo, subchronic study in db/db mice; conditions: F1 0.5 mg/kg, G1 30 nmol/kg or both
Method: This subchronic in vivo dosing study investigates the effect of GLP-1 and FGF21 compounds on blood glucose. The study was performed in db/db mice (as described in Example 5).
48 db/db mice, male, 11-12 weeks of age at study start.
Dosed subcutaneously 2 × daily with either (i) 0.5 mg/kg human FGF21 (compound F1; n=12); (ii) 30 nmol/kg of GLP-1 compound G1 (n=12); (iii) a combination of 0.5 mg/kg of compound F1 and 30 nmol/kg of compound G1 (n=12); or (iv) vehicle (sterile PBS buffer, n=12).
All groups were dosed for 21 days.
Blood samples of 10 μl were taken from the tip of the tail for blood glucose measurements once weekly.

[5] = system: db/db mice; assay: Effect on blood glucose in vivo, acute study in db/db mice; conditions: compound F1 0.125 mg/kg s.c. 1 × daily for 3 days and/or compound G4 1 nmol/kg s.c. one hour after last FGF21 dose, 0-48 hours post GLP-1 dose
Method: This acute in vivo study investigates the effect of FGF21 and GLP-1 compounds on blood glucose levels of db/db mice.
The db/db mouse is a hyperglycaemic, hyperinsulinaemic, hyperphagic and obese model of type 2 diabetes.
23 db/db mice (Male, C57BLKS db/db, from Taconic, Denmark, 15-16 weeks of age).
Dosed subcutaneously 1 × daily with 0.125 mg/kg human FGF21 (n=11) (compound F1) or vehicle (n=12) for 3 days. Vehicle was sterile PBS-buffer (DPBS, Gibco, cat. no. 14190).
Both groups of animals were then dosed with either vehicle or GLP-1 compound G4 at 1 nmol/kg (n=5-6). The G4 compound is a GLP-1 analogue which has an extended half-life due to its derivatisation with an albumin binder. The GLP-1 or vehicle dose was given subcutaneously one hour after the last FGF21 or vehicle dose.
Blood samples of 10 μl were taken from the tip of the tail for the measurement of blood glucose from 0-48 hours post dose of the GLP-1 compound.
Results were analysed using the area under the glucose curve (AUC) for the vehicle group, the GLP-1 group, the FGF21 group and the combined group.
The expected AUC was calculated using the following formula: […]
AUCvehicle−((AUCvehicle−AUCFGF212)+(AUCvehicle−AUCGLP-1))

B1: Met-FGF21_human (protein, listed as Homo sapiens)
chain: HPIPDSSPLLQFGGQVRQRYLYTDDAQQTEAHLEIREDGTVGGAADQSPESLLQLKALKPGVIQILGVKTSRFLCQRPDGALYGSLHFDPEACSFRELLLEDGYNVYQSEAHGLPLHLPGNKSPHRDPAPRGPARFLPLPGLPPALPEPPGILAPQPPDVGSSDPLSMVGPSQGRSPSYAS
modifications: N-terminal Met; mat_peptide (1)..(181); DISULFID (75)..(93)
[1]; FFA 0.00 mM
  Insulin accumulated in the medium: 1011 ± 112 ng/mL
[1]; FFA 0.35 mM
  Insulin accumulated in the medium: 569 ± 14 ng/mL
[1]; absence of free fatty acids, F1 50 nM
  stimulation of insulin release: does not stimulate insulin release
[2]; FFA 0.00 mM
  Apoptosis (Caspase 3/7 assay, fluorescense): 1827 +/− 22
[2]; FFA 0.35 mM
  Apoptosis (Caspase 3/7 assay, fluorescense): 33278 +/− 1254
[3]; FFA 0.00 mM
  Cell viability (MTT assay, A550): 1.19 +/− 0.05
[3]; FFA 0.35 mM
  Cell viability (MTT assay, A550): 0.28 +/− 0.01
[4]; Day 0, s.c. 2 × daily
  Blood glucose: 19.9 ± 1.2 mmol/L
[4]; Day 7, s.c. 2 × daily
  Blood glucose: 17.2 ± 1.3 mmol/L
[4]; Day 14, s.c. 2 × daily
  Blood glucose: 16.2 ± 1.8 mmol/L
[4]; Day 21, s.c. 2 × daily
  Blood glucose: 19.2 ± 3.0 mmol/L
[5]
  Glucose lowering capacity (AUC), blood glucose AUC0-48 h, mean: 389.8 mM·min
